PMC3878992
Read-outs that look alike come from different tables or passages of the source.

How the values were obtained:
[1] = target: eIF4G1 (Saccharomyces cerevisiae) (UniProt P39935); conditions: cited from earlier work
[2] = target: Cy5-eIF4E(A124C) (S. cerevisiae) (UniProt P07260); assay: single-molecule FRET
[3] = target: Cy5-eIF4E(A124C) (S. cerevisiae) (UniProt P07260); assay: single-molecule FRET; remark: listed apart in the source

| Kd [2] | Kd [3] | Molecule | Kd [1] |
| --- | --- | --- | --- |
| – | – | eIF4E (from UniProt P07260) | < 15 nM |
| 20 nM | – | full-length eIF4G1 (natural protein) MTDETAHPTQSASKQESAALKQTGDDQQESQQQRGYTNYNNGSNYTQKKPYNSNRPHQQRGGKFGPNRYNNRGNYNGGGSFRGGHMGANSSNVPWTGYYNNYPVYYQPQQMAAAGSAPANPIPVEEKSPVPTKIEITTKSGEHLDLKEQHKAKLQSQERSTVSPQPESKLKETSDSTSTSTPTPTPSTNDSKASSEENISEAEKTRRNFIEQVKLRKAALEKKRKEQLEGSSGNNNIPMKTTPENVEEKGSDKPEVTEKTKPAEEKSAEPEVKQETPAEEGEQGEKGQIKEESTPKVLTFAERLKLKKQQKEREEKTEGKENKEVPVQEETKSAIESAPVPPSEQVKEETEVAETEQSNIDESATTPAIPTKSDEAEAEVEAEAGDAGTKIGLEAEIETTTDETDDGTNTVSHILNVLKDATPIEDVFSFNYPEGIEGPDIKYKKEHVKYTYGPTFLLQFKDKLNVKADAEWVQSTASKIVIPPGMGRGNRSRDSGRFGNNSSRGHDFRNTSVRNMDDRANSRTSSKRRSKRMNDDRRSNRSYTSRRDRERGSYRNEEKREDDKPKEEVAPLVPSANRWVPKFKSKKTEKKLAPDGKTELLDKDEVERKMKSLLNKLTLEMFDAISSEILAIANISVWETNGETLKAVIEQIFLKACDEPHWSSMYAQLCGKVVKELNPDITDETNEGKTGPKLVLHYLVARCHAEFDKGWTDKLPTNEDGTPLEPEMMSEEYYAAASAKRRGLGLVRFIGFLYRLNLLTGKMMFECFRRLMKDLTDSPSEETLESVVELLNTVGEQFETDSFRTGQATLEGSQLLDSLFGILDNIIQTAKISSRIKFKLIDIKELRHDKNWNSDKKDNGPKTIQQIHEEEERQRQLKNNSRSNSRRTNNSSNRHSFRRDAPPASKDSFITTRTYSQRNSQRAPPPKEEPAAPTSTATNMFSALMGESDDEE | – |
| 25 nM | 20 nM | eIF4G1 eIF4E-binding domain (4EBD) flanked by additional eIF4G1 sequence (amino acids 348-513) (domain or fragment) EETEVAETEQSNIDESATTPAIPTKSDEAEAEVEAEAGDAGTKIGLEAEIETTTDETDDGTNTVSHILNVLKDATPIEDVFSFNYPEGIEGPDIKYKKEHVKYTYGPTFLLQFKDKLNVKADAEWVQSTASKIVIPPGMGRGNRSRDSGRFGNNSSRGHDFRNTSV | – |
